The record followed here is patent US20150104443A1 (CHONG KUN DANG PHARMACEUTICAL, published 2015).

Where a chain is given by its changes, count along the chain named.

Experiment [1] deals with T1, ErbB2 (UniProt P04626 23-652, limits assumed). In words: cell-based or functional assay.
Experiment [2] has as its target T1, ErbB2. In words: BIAcore 2000 SPR, ErbB2 amine-coupled to the chip, antibody injected.
Experiment [3] addresses T1, ErbB2. In words: BIAcore 2000 SPR, ratio of KD values.

B1: humanized antibody A091 (antibody, V domains shown)
VH: EVQLVESGGGLVQPGGSLRLSCAASGFNIKDTYIHWVRQARGKGLEWVARIYPTNGYTRYADSVKGRFTISADTSKNTAYLQMNSLRAEDTAVYYCSRWGGWGFYAFALWGQGTLVTVSS
VL: DIQMTQSPSSLSASVGDRVTITCRASQDVNTAVAWYQQKPGKAPKLLIYTTTWPYSGVPSRFSGSRSGTDFSLTISSLQPEDFATYYCQQYYNTPVTFGQGTKVEIK
notes: Expressed as a whole humanized antibody in CHO-s cells
With B1, in experiment [1], the “inhibition of NCI-N87 cell proliferation (WST-8, 6 days), IC50” value was found to be 10.3 nM. In experiment [2], this molecule yielded an equilibrium dissociation constant (Kd) of 1.07 nM, a koff of 0.000688 s⁻¹ and a kon of 644000 M⁻¹ s⁻¹.

B2: humanized antibody AH16 (antibody, V domains shown)
VH: B1 VH with R41P, G100N, G101A, W102K, A106S, A108V, L109H
VL: not shown
notes: as for B1
Take B2: in experiment [2], the Kd came out at 0.297 nM, the koff turned out to be 0.00012 s⁻¹ and the kon was found to be 404000 M⁻¹ s⁻¹. Moreover, the “fold increase of affinity against the parent antibody 4D5” value in experiment [3] was around 2 fold.

B3: humanized antibody A058 (antibody, V domains shown)
VH: B1 VH with R41P
VL: B1 VL with T50S, T51A, T52S, W53F, P54L, S72T, Y91H, N93Q, V96A, T97S
notes: as for B1
As to B3, the “inhibition of NCI-N87 cell proliferation (WST-8, 6 days), IC50” value in experiment [1] was 4.3 nM. In experiment [2], this molecule had a Kd of 0.533 nM, a koff of 0.000278 s⁻¹ and a kon of 522000 M⁻¹ s⁻¹.
